Numbering of substitutions follows the chain as printed.
Columns and labels:
[1] = target: T1, OmpR-His6 (Yersinia enterocolitica Ye9) (UniProt P74982); assay: EMSA; conditions: 50 mM Tris-HCl pH 8.0, 100 mM KCl, 1 mM EDTA, 1 mM DTT, 20 mM MgCl2, 12% glycerol, 100 ug/mL BSA, 0.1% Triton X-100; 22 C, 15 min; 0.05 or 0.3 pmol DNA in …
T1 sequence: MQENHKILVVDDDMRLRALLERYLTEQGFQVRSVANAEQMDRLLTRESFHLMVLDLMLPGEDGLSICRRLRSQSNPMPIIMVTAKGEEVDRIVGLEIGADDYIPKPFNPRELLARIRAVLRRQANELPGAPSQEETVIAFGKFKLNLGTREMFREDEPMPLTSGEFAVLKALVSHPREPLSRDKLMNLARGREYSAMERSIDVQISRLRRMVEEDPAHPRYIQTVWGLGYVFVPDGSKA

[2] = target: T2, OmpR-His6 (Yersinia enterocolitica Ye9) (UniProt P74982); assay: EMSA; conditions: 50 mM Tris-HCl pH 8.0, 100 mM KCl, 1 mM EDTA, 1 mM DTT, 20 mM MgCl2, 12% glycerol, 100 ug/mL BSA, 0.1% Triton X-100; 22 C, 15 min; 0.05 or 0.3 pmol DNA in …; remark: listed apart in the source
T2 sequence: T1 sequence with T136A

Sequence | binding [1] | binding [2]
CAATACATTGCATGATTAATCGGGCAAAGTGTGCAATTATATCTTTGTTAACAACCACGGTTTTCATTTGGGGCTAGCAGTTCTATAATGAGACGCAATTGAGAATATTGCGCCACGGATGTCATAGGCTGAACAGCCTTAATTTGAATCGATAGTAACAGGACTGAATCCGCATG (double strand) [F4] | binds more weakly | 
CAATCTATTCACGGGGCAACAAAAACGAACAAGATTGATAATTATTTTCATTATCAATTCATCCGGCTAATTGTTACATTTGCAATCAGAAAAAAGGTTTGTGTAAACAGCAAAACTCTTTGCTATAAAGTCAATGTTGTTACTACATCAATACCAGTGAAGGAGTCATTATGCCCGCGGTGAAGAAAAATAAGTTGCGCAATATTTCCCCATCATCCAAACCGATTTATCGCGACCAAATTATGCA (double strand) [PfepA] |  | binds
CCCCCTTATTCCAAATGGTTTTTATTTCTCCTTTCTGTTTTTGCAGCAAGAAATAATTCGTCTGTTTGCGACAAAATTGATTTACTTGGGAAATGTAATCATTAAGATTAGCGTTTCTAAAAAATTACAATCAGACACAATTCCTTTCGCAATAGGCCCAAAATGTTAACGTTTTCCCGTTTGTCTCTG (double strand) [PfecA] |  | binds
CGTTGCTTCTATCCCTCTGGTTATACTCTGTTAAGCCACCCACAGATCCGCACTTTCATCCGTGCAAAATGAAAATAAACTGCTACAAATTTGTAACCTTATACTTTGCAGTCAT (double strand) [F2] | binds | 
CGTTGCTTCTATCCCTCTGGTTATACTCTGTTAAGCCACCCACAGATCCGCACTTTCATCCGTGCAAAATGAAAATAAACTGCTACAAATTTGTAACCTTATACTTTGCAGTCATATACTTAAATTATGCAACAATCCCATTCATCAATACATTGCATGATTAATCGGGCAAAGTGTGCAATTATATCTTTGTTAACAACCACGGTTTTCATTTGGGGCTAGCAGTTCTATAATGAGACGCAA (double strand) [F23] | binds | 
GCAGTCATATACTTAAATTATGCAACAATCCCATTCATCAATACATTGCATGATTAATCGGGCAAAGTGTGCAATTATATCTTTGTTAACAACCACGGTTTTCATTTGGGGCTAGCAGTTCTATAATGAGACGCAA (double strand) [F3] | binds | 
GCAGTCATATACTTAAATTATGCAACAATCCCATTCATCAATACATTGCATGATTAATCGGGCAAAGTGTGCAATTATATCTTTGTTAACAACCACGGTTTTCATTTGGGGCTAGCAGTTCTATAATGAGACGCAATTGAGAATATTGCGCCACGGATGTCATAGGCTGAACAGCCTTAATTTGAATCGATAGTAACAGGACTGAATCCGCATG (double strand) [F34] | binds | 
GCATGATTAATCGGGCAAAGTGTGCAATTATATCTTTGTTAACAACCACGGTTTTCATTTGGGGCTAGCAGTTCTATAATGAGACGCAATTGAGAATATTGCGCCACGGATGTCATAGGCTGAACAGCC (double strand) [F0] | no binding | 
GGTGGTAAAACAAGCGCAAATAGAAATCAGACTCATTAATTTTAAAAATGAAATCGTAATGAATATTTACTTTTGAGTCTTTAACCTGAGTTGAATATGAAAACGATTCTTACTATTATTATTTTAATCATTATTCATTAGTGGTGGAATTTCTCTGAACTCTGGTTTGCTAATGCGTTATAACGAGAGGCTTACATGCATCTGATCCCACAGCGCTCCTACAAAAT (double strand) [PfeoA] |  | binds more weakly
TCATTTTGCACGGATGAAAGTGCGGATCTGTGGGTGGCTTAACAGAGTATAACCAGAGGGATAGAAGCAACGGAAACGCGTGGCAATATTAAATTTCATCCTCGCGTTTCCGACATGACAAATTAACCGGTAATTTCGGCCAGATTCAGTTCT (double strand) [F1] | binds more weakly | 
TGACAAATGAGCGCGTTGAAGCTTGGGTAAAACAGATCAGCGAAGAACTGAATCTGGCCGAAATTACCGGTTAATTTGTCATGTCGGAAACGCGAGGATGAAATTTAATATTGCCACGCGTTTCCGTTGCTTCTATCCCTCTGGTTATACTCTGTTAAGCCACCCACAGATCCGCACTTTCATCCGTGCAAAATGAAAATAAACTGCTACAAATTTGTAACCTTATACTTTGCAGTCAT (double strand) [F12] | binds | 
